Reference: publication PMC4514735, “The FKBP52 Cochaperone Acts in Synergy with β-Catenin to Potentiate Androgen Receptor Signaling” (PLoS ONE, 2015)

Target: T1, Gal4 DNA binding domain (DBD)-AR LBD chimeric protein (UniProt P10275 669-920)
T1 construct: also called Gal4-AR LBD; Gal4-DBD fused to the AR LBD; source: in cells (two-hybrid) and in lysate (co-IP)
T1 sequence (looked up): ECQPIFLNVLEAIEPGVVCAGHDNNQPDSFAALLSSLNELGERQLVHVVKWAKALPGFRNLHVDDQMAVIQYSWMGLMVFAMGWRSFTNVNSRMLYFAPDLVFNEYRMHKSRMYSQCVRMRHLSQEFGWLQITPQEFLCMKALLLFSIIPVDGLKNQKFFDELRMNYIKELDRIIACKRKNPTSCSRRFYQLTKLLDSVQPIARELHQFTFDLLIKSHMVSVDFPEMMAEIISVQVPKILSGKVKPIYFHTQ
Test: two-hybrid; mammalian two-hybrid in 293T cells, Gal4-tk-luc reporter, 10 nM DHT, with FKBP52 overexpressed
Details: partners not purified

fold enhancement of the two-hybrid signal by overexpressed FKBP52: 4.5 fold
B1: VP16-AD fused to the full-length β-catenin (natural protein, UniProt P35222 1-781, looked up)
chain: MATQADLMELDMAMEPDRKAAVSHWQQQSYLDSGIHSGATTTAPSLSGKGNPEEEDVDTSQVLYEWEQGFSQSFTQEQVADIDGQYAMTRAQRVRAAMFPETLDEGMQIPSTQFDAAHPTNVQRLAEPSQMLKHAVVNLINYQDDAELATRAIPELTKLLNDEDQVVVNKAAVMVHQLSKKEASRHAIMRSPQMVSAIVRTMQNTNDVETARCTAGTLHNLSHHREGLLAIFKSGGIPALVKMLGSPVDSVLFYAITTLHNLLLHQEGAKMAVRLAGGLQKMVALLNKTNVKFLAITTDCLQILAYGNQESKLIILASGGPQALVNIMRTYTYEKLLWTTSRVLKVLSVCSSNKPAIVEAGGMQALGLHLTDPSQRLVQNCLWTLRNLSDAATKQEGMEGLLGTLVQLLGSDDINVVTCAAGILSNLTCNNYKNKMMVCQVGGIEALVRTVLRAGDREDITEPAICALRHLTSRHQEAEMAQNAVRLHYGLPVVVKLLHPPSHWPLIKATVGLIRNLALCPANHAPLREQGAIPRLVQLLVRAHQDTQRRTSMGGTQQQFVEGVRMEEIVEGCTGALHILARDVHNRIVIRGLNTIPLFVQLLYSPIENIQRVAAGVLCELAQDKEAAEAIEAEGATAPLTELLHSRNEGVATYAAAVLFRMSEDKPQDYKKRLSVELTSSLFRTEPMAWNETADLGLDIGAQGEPLGYRQDDPSYRSFHSGGYGQDALGMDPMMEHEMGGHHPGADYPVDGLPDLGHAQDLMDGLPPGDSNQLAWFDTDL
notes: β-catenin, full length; NheI-XbaI fragment of pCI-neo-β-catenin inserted into the pACT vector (Promega); also called Vp16-β-catenin; VP16-β-catenin
